Substrate in data set [1]: COC(=O)C1CN=CNC1
The conditions noted are these: Mus musculus; A9L.

Substrate in data set [2]: C[N+](C)(C)CCOC(N)=O
Conditions: Mus musculus; A9L.

B1: Muscarinic acetylcholine receptor M2 (Mus musculus), Q9ERZ4 (protein)
chain: MNNSTNSSNNGLAITSPYKTFEVVFIVLVAGSLSLVTIIGNILVMVSIKVNRHLQTVNNYFLFSLACADLIIGVFSMNLYTLYTVIGYWPLGPVVCDLWLALDYVVSNASVMNLLIISFDRYFCVTKPLTYPVKRTTKMAGMMIAAAWVLSFILWAPAILFWQFIVGVRTVEDGECYIQFFSNAAVTFGTAIAAFYLPVIIMTVLYWHISRASKSRIKKEKKEPVANQDPVSPSLVQGRIVKPNNNNMPGGDGGLEHNKIQNGKAPRDGGTENCVQGEEKESSNDSTSVSAVASNMRDDEITQDENTVSTSLGHSKDDNSRQTCIKIVTKTQKGDACTPTSTTVELVGSSGQNGDEKQNIVARKIVKMTKQPAKKKPPPSREKKVTRTILAILLAFIITWAPYNVMVLINTFCAPCIPNTVWTIGYWLCYINSTINPACYALCNATFKKTFKHLLMCHYKNIGATR
The Km is the substrate concentration at which the rate is half of its maximum. With B1, the results for the Km in data set [1] and in data set [2] were 0.014 µM and 0.046 µM, respectively.

The values above are taken from ChEMBL document CHEMBL1129993, “Synthesis and biological characterization of 1,4,5,6-tetrahydropyrimidine and 2-amino-3,4,5,6-tetrahydropyridine derivatives as selective m1 agonists” (J Med Chem, 1997).
